{"source": "patent US20220259593A1", "about": "“CONTROL OF MAMMALIAN GENE DOSAGE USING CRISPR” (The Regents of the University of California, priority 2019, published 2022)", "test_system": "K562 CRISPRi cells", "test": "Constant region variant library pooled growth screen, K562", "format": "cell-based, human", "conditions": "sgRNA constant region variants; activity relative to the original, un-modified constant region cr995", "summary_of_the_method": "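Library of sgRNA constant-region variants, each paired with 36 targeting sequences (essential-gene and non-targeting), transduced in duplicate into K562 CRISPRi cells, puromycin-selected and grown 4–8 days at >2000× coverage. Activity per variant is its growth phenotype normalised to the same targeting sequence with unmodified constant region.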"}
{"molecule": "cr674 (nucleic acid, listed as DNA, chemistry not fully specified) guide: GTTTAAGAGCTAAGCTGGAAACAGCATAGCAAGTTTAAATAACGCTAGTCGGTTATCATCTTGAAAAAGAGGCACCGAGTCGGTGCT", "values": [{"measurement": "Mean relative activity", "result": 0.00279}]}
{"molecule": "cr579 (nucleic acid, listed as DNA, chemistry not fully specified) guide: GTTTAAGAGCTAAGCTGGAAACAGCATAGCAAGTTTAAATAAGGCTAGTCCCATATCAACTTGAAAAAGTGGCACCGAGTCGGTGCT", "values": [{"measurement": "Mean relative activity", "result": "−0.000418"}]}
{"molecule": "cr786 (nucleic acid, listed as DNA, chemistry not fully specified) guide: GTTTAAGAGCTAAGCTGGAAACAGCATAGCAAGTTTAAATTAGGCTAGTCCGTTGTGAACTTGAAAAAGTGGCACCGAGTCGGTGCT", "values": [{"measurement": "Mean relative activity", "result": 0.001749}]}
{"molecule": "cr930 (nucleic acid, listed as DNA, chemistry not fully specified) guide: GTTTAAGAGCTAAGCTGGAAACAGCATAGCATGTTTAAATAAGGCTAGGCCGTTATTAACTTGAAAAAGTGGCACCGAGTCGGTGCT", "values": [{"measurement": "Mean relative activity", "result": 0.001721}]}
{"molecule": "cr350 (nucleic acid, listed as DNA, chemistry not fully specified) guide: GTTTAAGAGCTAAGCTGGAAACAGCATAGCAAGCTTAAATAATGCTAGTCAGTTATCAACTTGAAAAAGTGGCACCGAGTCGGTGCT", "values": [{"measurement": "Mean relative activity", "result": 0.001423}]}
{"molecule": "cr149 (nucleic acid, listed as DNA, chemistry not fully specified) guide: GTTTAAGAGCTAAGCTGGAAACAGCATAGCAAGTTTAAATAACGCTAGTCGGTTATCAACTTGAAAAAGTGTCACCGAGTCGGTGAT", "values": [{"measurement": "Mean relative activity", "result": 0.00167}]}
{"molecule": "cr787 (nucleic acid, listed as DNA, chemistry not fully specified) guide: GTTTAAGAGCTAAGCTGGAAACAGCATAGCAACTTTAAATAACGCTAGTCGGTTATCAACTTGAAAAAGTGGCACCGAGTCGGTGCT", "values": [{"measurement": "Mean relative activity", "result": 0.0008483}]}
{"molecule": "cr657 (nucleic acid, listed as DNA, chemistry not fully specified) guide: GTTTAAGAGCTAAGCTGGAAACAGCATAGCAAGTTTAAATAAGGCTAGTGCGTTATCAACTTGAAAAAGTGGCACCGAGTCGGTGCT", "values": [{"measurement": "Mean relative activity", "result": 0.002604}]}
{"molecule": "cr099 (nucleic acid, listed as DNA, chemistry not fully specified) guide: GTTTAAGAGCTAAGCTGGAAACAGCATAGCAATTTTAAATAAGGCTAGGCCGTTATCAACTTGAAAAAGTGGCACCGAGTCGGTGCT", "values": [{"measurement": "Mean relative activity", "result": 0.0005052}]}
{"molecule": "cr497 (nucleic acid, listed as DNA, chemistry not fully specified) guide: GTTTAAGAGCTAAGCTGGAAACAGCATAGCAAGTTTAAATAAGGCTAGTCCGTTATCAACTTGAGAAAGTGGAACCGAGTCGGTTCT", "values": [{"measurement": "Mean relative activity", "result": 1.028}]}
{"molecule": "cr810 (nucleic acid, listed as DNA, chemistry not fully specified) guide: GTTTAAGAGCTAAGCTGGAAACAGCATAGCAAGGTTAAATAAGGCTAGTCCGTTATCAACTTGAAAAAGTGGCACCCAGTGGGTGCT", "values": [{"measurement": "Mean relative activity", "result": 0.002026}]}
{"molecule": "cr629 (nucleic acid, listed as DNA, chemistry not fully specified) guide: GTTTAAGAGCTAAGCTGGAAACAGCATAGCAACTTTAAATAAGGCTAGTCCGTTATCAAATTGAAAAATTGGCACCGAGTCGGTGCT", "values": [{"measurement": "Mean relative activity", "result": "−5.97E−5"}]}
{"molecule": "cr244 (nucleic acid, listed as DNA, chemistry not fully specified) guide: GTTTAAGAGCTAAGCTGGAAACAGCATAGCAAGGTTAAATAAGGGTACTCCGTTATCAACTTGAAAAAGTGGCACCGAGTCGGTGCT", "values": [{"measurement": "Mean relative activity", "result": 0.00149}]}
{"molecule": "cr572 (nucleic acid, listed as DNA, chemistry not fully specified) guide: GTTTAAGAGCTAAGCTGGAAACAGCATAGCAAGTTTAAATAACCGAACTCGGTTATCAACTTGAAAAAGTGGCACCGAGTCGGTGCT", "values": [{"measurement": "Mean relative activity", "result": 0.002782}]}
{"molecule": "cr035 (nucleic acid, listed as DNA, chemistry not fully specified) guide: GTTGATGAGCTAAGCTGGAAACAGCATAGCAAGTTTAAATAAGGCTAGTCCGTTATCAACTTGAAAAAGTGGCACCGAGTCGGTGCT", "values": [{"measurement": "Mean relative activity", "result": 0.0006927}]}
{"molecule": "cr431 (nucleic acid, listed as DNA, chemistry not fully specified) guide: GTTTAAGAGCTAAGCTGGAAACAGCATAGCAAGGTTAAATAAGGCTAGTCCGTTATCAACTTGAGAAAGTGGCACCGCGTCGGTGCT", "values": [{"measurement": "Mean relative activity", "result": "−0.0002713"}]}
{"molecule": "cr083 (nucleic acid, listed as DNA, chemistry not fully specified) guide: GTGTGAGAGCTAAGCTGGAAACAGCATAGCAAGTTTAAATAAGGCTAGTCCGTTATCAACTTGAAAAAGTGGCACCGAGTCGGTGCT", "values": [{"measurement": "Mean relative activity", "result": 0.001403}]}
{"molecule": "cr355 (nucleic acid, listed as DNA, chemistry not fully specified) guide: GTTTAAGAGCTAAGCTGGAAACAGCATAGCAAGGTTAAATAAGGCTAGTCCGTTATCAACTAGAAATAGTGGCACCGAGTCGGTGCT", "values": [{"measurement": "Mean relative activity", "result": 0.001771}]}
{"molecule": "cr874 (nucleic acid, listed as DNA, chemistry not fully specified) guide: GTTTAAGAGCTAAGCTGGAAACAGCATAGCAAGGTTAAATAATGCTAGTCAGTTATCAACTTGAAAAAGTGGCACCGAGTCGGTGCT", "values": [{"measurement": "Mean relative activity", "result": 0.002144}]}
{"molecule": "cr225 (nucleic acid, listed as DNA, chemistry not fully specified) guide: GTTTAAGAGCTAAGCTGGAAACAGCATAGCAAGTTTAAATAATGCTATTCCGTTATCAACTTGAAAAAGTGGCACCGAGTCGGTGCT", "values": [{"measurement": "Mean relative activity", "result": 0.002658}]}
{"molecule": "cr093 (nucleic acid, listed as DNA, chemistry not fully specified) guide: GTTTCGGAGCTAAGCTGGAAACAGCATAGCAAGTTTAAATAAGGCTAGTCCGTTATCAACTTGAAAAAGTGGCACCGAGTCGGTGCT", "values": [{"measurement": "Mean relative activity", "result": 0.001456}]}
{"molecule": "cr939 (nucleic acid, listed as DNA, chemistry not fully specified) guide: GTTTAAGAGCTAAGCTGGAAACAGCATAGCAACTTTAAATAAGGCAAGTCCCTTATCAACTTGAAAAAGTGGCACCGAGTCGGTGCT", "values": [{"measurement": "Mean relative activity", "result": "4.94E−05"}]}
{"molecule": "cr106 (nucleic acid, listed as DNA, chemistry not fully specified) guide: GTTTAAGAGCTAAGCTGGAAACAGCATAGCAAGGTTAAATAAGTCTAGTACGTTATCAACTTGAAAAAGTGGCACCGAGTCGGTGCT", "values": [{"measurement": "Mean relative activity", "result": 0.001355}]}
{"molecule": "cr143 (nucleic acid, listed as DNA, chemistry not fully specified) guide: GTTTAAGAGCTAAGCTGGAAACAGCATAGCAACTTTAAATAAGACTAGTTCGTTATCAACTTGAAAAAGTGGCACCGAGTCGGTGCT", "values": [{"measurement": "Mean relative activity", "result": 0.001524}]}
{"molecule": "cr608 (nucleic acid, listed as DNA, chemistry not fully specified) guide: GTTTAAGAGCTAAGCTGGAAACAGCATAGCAACTTTAAATAAGGGTACTCCGTTATCAACTTGAAAAAGTGGCACCGAGTCGGTGCT", "values": [{"measurement": "Mean relative activity", "result": 0.002568}]}
{"molecule": "cr975 (nucleic acid, listed as DNA, chemistry not fully specified) guide: GTTTAAGAGCTAAGCTGGAAACAGCATAGCAACTTTAAATATGGCTAGTCCGTTATCAACTTGAAAAAGTGGCACCGAGTCGGTGCT", "values": [{"measurement": "Mean relative activity", "result": 0.002152}]}
{"molecule": "cr129 (nucleic acid, listed as DNA, chemistry not fully specified) guide: GTTTAAGAGCTAAGCTGGAAACAGCATAGCAAGTTTAAATAAGGCTAGTCCGTTATCAACGTGAGAACGTGGCACCGAGTCGGTGCT", "values": [{"measurement": "Mean relative activity", "result": 1.029}]}
{"molecule": "cr903 (nucleic acid, listed as DNA, chemistry not fully specified) guide: GTTTAAGAGCTAAGCTGGAAACAGCATAGCAAGTTTAAATAAGGCTAGTCCCTTATCAACTTGAAAAAGTGGCACCGAATCGGTGCT", "values": [{"measurement": "Mean relative activity", "result": 0.00222}]}
{"molecule": "cr735 (nucleic acid, listed as DNA, chemistry not fully specified) guide: GTTTAAGAGCTAAGCTGGAAACAGCATAGCAACTTTAAATAAGGCTAGTCCGTTATCAACTTGAAAAAGTCGCACCGAGTCGGTGCT", "values": [{"measurement": "Mean relative activity", "result": 0.002596}]}
{"molecule": "cr912 (nucleic acid, listed as DNA, chemistry not fully specified) guide: GTTTAAGAGCTAAGCTGGAAACAGCATAGCAAGCTTAAATGAGGCTAGTCCGGTATCAACTTGAAAAAGTGGCACCGAGTCGGTGCT", "values": [{"measurement": "Mean relative activity", "result": "−1.05E−05"}]}
